Data published in patent US7807783 (REGENTS OF THE UNIVERSITY OF MICHIGAN, dated 2010).

B1: GAL4 DNA binding domain fusion of the cytoplasmic domain of CD28 (receptor, UniProt P04386 1-147, looked up)
chain: MKLLSSIEQACDICRLKKLKCSKEKPKCAKCLKNNWECRYSPKTKRSPLTRAHLTEVESRLERLEQLFLLIFPREDLDMILKMDSLQDIKALLTGLFVQDNVNKDAVTDRLASVETDMPLTLRQHRISATSSSEESSNKGQRQLTVSRSKRSRLLHSDYMNMTPRRPGPTRKHYQPYAPPRDFAAYRS
notes: also called CD28 (yeast bait)
B2: GAL4 activation domain-FADD fusion protein (GAL4ad-FADD) (other, not shown: large carriers)
chain: MDPFLVLLHSVSSSLSSSELTELKFLCLGRVGKRKLERVQSGLDLFSMLLEQNDLEPGHTELLRELLASLRRHDLLRRVDDFEAGAAAGAAPGEEDLCAAFNVICDNVGKDWRRLARQLKVSDTKIDSIEDRYPRNLTERVRESLRIWKNTEKENATVAHLVGALRSCQMNLVADLVQEVQQARDLQNRSGAMSPMSWNSDASTSEAS

What was measured:
[1] = biological target: B2; experiment: yeast two-hybrid, β-galactosidase filter assay
Excerpt: (§1) The following yeast two-hybrid system was used and constructed as follows. The cytoplasmic domains of Fas, Fas-FD8, TNRF-1, Δ-TNFR-1, CD40, and CD28 were obtained by PCR and cloned in-frame, as confirmed by sequencing, into the GAL4 DNA binding domain (GAL4bd) vector pAS1CYH2. Full-length A20 and B94 were similarly cloned into the bait vector. GAL4bd-Fas was cotransformed with a prey plasmid containing a human B-cell cDNA expression library fused to the GAL4 activation domain (GAL4ad) in the pACT plasmid. A more detailed account of the plasmids used in the procedure for the yeast two-hybrid system can be found in Hu et al. (1994) *J. Biol. Chem.* 269:30069-30072.
(§2) The yeast two-hybrid system was used to screen for proteins that interact with the cytoplasmic domain of Fas. An expression vector was constructed by fusing the GAL4 DNA-binding domain to the cytoplasmic tail of the human Fas antigen (GAL4bd-Fas). This bait plasmid was cotransformed in yeast with a prey plasmid containing a human B-cell cDNA expression library fused to the GAL4-activation domain. Seventeen positive clones were obtained from 2 ×10^6 transformants screened. To determine the specificity of interaction, plasmids containing the activation domain fusion proteins were recovered from the putative positive clones and cotransformed with GAL4bd-Fas and control heterologous baits.

[2] = biological target: T1, GAL4 DNA binding domain fusion of the cytoplasmic domain of CD40 (UniProt P04386 1-147; P25942 216-277, limits assumed); experiment: yeast two-hybrid, β-galactosidase filter assay
T1 construct: also called CD40 (yeast bait)
Excerpt: as §1, §2

[3] = biological target: T2, GAL4 DNA binding domain fusion of full-length A20 (UniProt P04386 1-147; P21580 1-790); experiment: yeast two-hybrid, β-galactosidase filter assay
T2 construct: also called A20 (yeast bait)
Excerpt: as §1, §2

[4] = biological target: T3, GAL4 DNA binding domain fusion of full-length B94 (UniProt P04386 1-147; Q03169 1-654); experiment: yeast two-hybrid, β-galactosidase filter assay
T3 construct: also called B94 (yeast bait)
Excerpt: as §1, §2

[5] = biological target: T4, cytoplasmic domain of Fas (UniProt P25445 191-335, limits assumed); experiment: not described
T4 construct: domain: cytoplasmic domain
T4 sequence (looked up): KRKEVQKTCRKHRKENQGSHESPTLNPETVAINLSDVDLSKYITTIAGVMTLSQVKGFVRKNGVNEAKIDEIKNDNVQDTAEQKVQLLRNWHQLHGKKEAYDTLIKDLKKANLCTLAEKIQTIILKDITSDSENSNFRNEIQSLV

[6] = biological target: T1, GAL4 DNA binding domain fusion of the …; experiment: yeast two-hybrid
Excerpt: as §1, §2

[7] = biological target: T2, GAL4 DNA binding domain fusion of …; experiment: yeast two-hybrid
Excerpt: as §1, §2

[8] = biological target: T3, GAL4 DNA binding domain fusion of …; experiment: yeast two-hybrid
Excerpt: as §1, §2

[9] = biological target: B1; experiment: yeast two-hybrid
Excerpt: as §1, §2

GST [10] = biological target: T5, GST (UniProt P08515 1-218 = GST); experiment: GST pull-down from lysates of transfected 293T cells
T5 construct: Control protein on glutathione beads
Procedure: (§3) Detergent lysates were prepared and incubated with various GST fusion proteins immobilized on glutathione-Sepharose beads. The samples were analyzed by SDS-PAGE and autoradiography (upper panel). The respective GST fusion proteins are shown as in FIG. 4B (middle panel).

[11] = biological target: T6, GST-Fas (GST fusion protein containing the cytoplasmic domain of Fas) (UniProt P25445 191-335); experiment: as above
T6 construct: domain: cytoplasmic domain; Made in E. coli BL21(DE3)pLysS and immobilized on glutathione beads; not shown: glutathione S-transferase of vector pGSTag
T6 sequence (looked up): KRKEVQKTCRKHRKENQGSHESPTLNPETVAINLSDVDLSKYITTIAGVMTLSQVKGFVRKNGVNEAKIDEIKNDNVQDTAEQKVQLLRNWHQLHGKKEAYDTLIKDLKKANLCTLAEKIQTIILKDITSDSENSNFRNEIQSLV
Procedure: as §3

GST [12] = biological target: T5, GST; experiment: GST pull-down of 35S-labeled in vitro translated FADD, SDS-PAGE and autoradiography
[13] = biological target: GAL4 DNA-binding domain fused to the cytoplasmic tail of the human Fas antigen (GAL4bd-Fas) (human, UniProt P04386 1-147; P25445 191-335, limits assumed); experiment: yeast two-hybrid
Excerpt: as §1, §2

T5 sequence (P08515 whole entry): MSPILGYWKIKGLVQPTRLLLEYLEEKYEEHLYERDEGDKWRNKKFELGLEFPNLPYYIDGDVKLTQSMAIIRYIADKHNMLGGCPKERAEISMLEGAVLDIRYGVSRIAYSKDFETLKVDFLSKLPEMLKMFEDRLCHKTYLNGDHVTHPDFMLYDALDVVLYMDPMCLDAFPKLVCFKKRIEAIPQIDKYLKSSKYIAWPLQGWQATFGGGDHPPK

## B1
[1]
  binding result: no binding

## B2
[2]
  binding result: no binding
[3]
  binding result: no binding
[4]
  binding result: no binding

B3: N-FADD (other)
chain: DTYRYIMDPFLVLLHSVSSSLSSSELTELKFLCLGRVGKRKLERVQSGLDLFSMLLEQNDLEPGHTELLRELLASLRRHDLLRRVDDFEAGAAAGAAPGEEDLCAAFNVICDNVGKDWRRLAR
notes: the AU1-tagged form is the one made for the cell death assays; also called AU1-N-FADD
[5]
  binding result: no binding

B4: clone 15 (GAL4 activation domain fusion isolated in the yeast two-hybrid screen) (other, not shown: large carriers)
chain: KFLCLGRVGKRKLERVQSGLDLFSMLLEQNDLEPGHTELLRELLASLRRHDLLRRVDDFEAGAAAGAAPGEEDLCAAFNVICDNVGKDWRRLARQLKVSDTKIDSIEDRYPRNLTERVRESLRIWKNTEKENATVAHLVGALRSCQMNLVADLVQEVQQARDLQNRSGAMSPMSWNSDASTSEAS
notes: also called GAL4ad-FADD (clone 15)
[6]
  binding result: no binding
[7]
  binding result: no binding
[8]
  binding result: no binding
[9]
  binding result: no binding

B5: AU1-epitope tagged FADD (AU1-FADD) (other)
chain: DTYRYIMDPFLVLLHSVSSSLSSSELTELKFLCLGRVGKRKLERVQSGLDLFSMLLEQNDLEPGHTELLRELLASLRRHDLLRRVDDFEAGAAAGAAPGEEDLCAAFNVICDNVGKDWRRLARQLKVSDTKIDSIEDRYPRNLTERVRESLRIWKNTEKENATVAHLVGALRSCQMNLVADLVQEVQQARDLQNRSGAMSPMSWNSDASTSEAS
modifications: 35S-methionine/cysteine metabolic label
notes: the tag is placed N-terminal by the name only
GST [10]
  binding result: no binding

B6: AU1-FADDmt (other)
chain: DTYRYIMDPFLVLLHSVSSSLSSSELTELKFLCLGRVGKRKLERVQSGLDLFSMLLEQNDLEPGHTELLRELLASLRRHDLLRRVDDFEAGAAAGAAPGEEDLCAAFNVICDNVGKDWRRLARQLKNSDTKIDSIEDRYPRNLTERVRESLRIWKNTEKENATVAHLVGALRSCQMNLVADLVQEVQQARDLQNRSGAMSPMSWNSDASTSEAS
modifications: 35S-methionine/cysteine metabolic label
notes: also called point mutant of FADD
[11]
  binding result: no binding
GST [10]
  binding result: no binding

B7: HA-epitope tagged FADD (HA-FADD) (other)
chain: YPYDVPDYAMDPFLVLLHSVSSSLSSSELTELKFLCLGRVGKRKLERVQSGLDLFSMLLEQNDLEPGHTELLRELLASLRRHDLLRRVDDFEAGAAAGAAPGEEDLCAAFNVICDNVGKDWRRLARQLKVSDTKIDSIEDRYPRNLTERVRESLRIWKNTEKENATVAHLVGALRSCQMNLVADLVQEVQQARDLQNRSGAMSPMSWNSDASTSEAS
modifications: 35S-methionine/cysteine metabolic or in vitro translation label
notes: also called in vitro translated FADD; 35S-labeled FADD
GST [12]
  binding result: no binding

B8: clone 8 (GAL4 activation domain fusion isolated in the yeast two-hybrid screen) (other, not shown: large carriers)
chain: SGLDLFSMLLEQNDLEPGHTELLRELLASLRRHDLLRRVDDFEAGAAAGAAPGEEDLCAAFNVICDNVGKDWRRLARQLKVSDTKIDSIEDRYPRNLTERVRESLRIWKNTEKENATVAHLVGALRSCQMNLVADLVQEVQQARDLQNRSGAMSPMSWNSDASTSEAS
[6]
  binding result: no binding
[13]
  binding result: binds
[7]
  binding result: no binding
[8]
  binding result: no binding
[9]
  binding result: no binding
